What was measured:
[1] = target: T1, human C5a receptor (UniProt P21730 1-350); experiment: saturation binding to human neutrophils (flow cytometry, MFI); 4 C
T1 chain: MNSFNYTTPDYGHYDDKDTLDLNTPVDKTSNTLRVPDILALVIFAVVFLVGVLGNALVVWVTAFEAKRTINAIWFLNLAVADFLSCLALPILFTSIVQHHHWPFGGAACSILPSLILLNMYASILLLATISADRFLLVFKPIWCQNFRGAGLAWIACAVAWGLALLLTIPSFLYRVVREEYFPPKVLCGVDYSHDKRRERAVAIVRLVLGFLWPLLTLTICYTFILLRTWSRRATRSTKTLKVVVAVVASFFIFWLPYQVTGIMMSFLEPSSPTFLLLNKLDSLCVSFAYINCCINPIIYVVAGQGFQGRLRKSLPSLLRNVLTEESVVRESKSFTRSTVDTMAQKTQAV

[2] = target: T1, human C5a receptor; experiment: as above

B1: mouse anti-C5aR monoclonal antibody 7F3 (antibody, V domains shown)
VH: QVQLQQSGPELVKPGASVKISCKASGYAFSNSWMNWVKQRPGKGLEWIGRIYPGDGDTKYNGKFKGKATLTADKSSSTAYMQLSSLTSEDSAVYFCARFLLISTVTAVDYWGQGTTLTVSS
VL: DVVMTQSPLSLPVSLGNQASISCRSSQSLVHSNGNTYLHWYLQKPGQSPKLLIYKVSNRFSGVPDRFSGSGSGTDFSLKISRVEAEDLGVYFCSQSTLVPLTFGAGTKLELK
**Q.** With B1 as the binder, how does the EC50 [1] read?
**A.** Its EC50 is 8.51 nM.

**Q.** What about the Kd [2] of the same binder?
**A.** The Kd was 9.2 nM.

B2: humanized anti-C5aR antibody hAb-J (antibody)
light: DVVMTQSPLSLPVTLGEPASISCRSSQSLVHSNGNTYLHWYLQKPGQSPQLLIYKVSNRFSGVPDRFSGSGSGTDFTLKISRVEAEDVGVYFCSQSTLVPLTFGQGTKLEIKTVAAPSVFIFPPSDEQLKSGTASVVCLLNNFYPREAKVQWKVDNALQSGNSQESVTEQDSKDSTYSLSSTLTLSKADYEKHKVYACEVTHQGLSSPVTKSFNRGEC
heavy: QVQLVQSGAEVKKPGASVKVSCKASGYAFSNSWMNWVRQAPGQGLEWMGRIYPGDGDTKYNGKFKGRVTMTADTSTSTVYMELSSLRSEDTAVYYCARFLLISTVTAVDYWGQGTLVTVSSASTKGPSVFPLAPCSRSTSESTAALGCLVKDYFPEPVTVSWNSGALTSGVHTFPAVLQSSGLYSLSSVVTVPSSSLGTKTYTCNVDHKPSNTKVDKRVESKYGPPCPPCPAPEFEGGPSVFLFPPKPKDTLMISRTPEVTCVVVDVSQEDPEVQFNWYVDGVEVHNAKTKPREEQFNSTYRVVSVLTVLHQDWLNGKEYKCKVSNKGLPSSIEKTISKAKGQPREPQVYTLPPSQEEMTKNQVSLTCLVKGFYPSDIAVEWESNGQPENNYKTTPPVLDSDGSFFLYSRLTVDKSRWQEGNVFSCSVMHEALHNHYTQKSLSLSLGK
**Q.** B2 was tested. Which EC50 [1] did it give?
**A.** Its EC50 is 20.1 nM.

**Q.** And the Kd [2]?
**A.** The Kd was 25.4 nM.

B3: humanized anti-C5aR antibody hAb-Q (antibody)
light: DVVMTQSPLSLPVTLGEPASISCRSSQSLVHSNGNTYLHWYLQKPGQSPQLLIYKVSNRFSGVPDRFSGSGSGTDFTLKISRVEAEDVGVYFCSQSTLVPLTFGQGTKLEIKRTVAAPSVFIFPPSDEQLKSGTASVVCLLNNFYPREAKVQWKVDNALQSGNSQESVTEQDSKDSTYSLSSTLTLSKADYEKHKVYACEVTHQGLSSPVTKSFNRGEC
heavy: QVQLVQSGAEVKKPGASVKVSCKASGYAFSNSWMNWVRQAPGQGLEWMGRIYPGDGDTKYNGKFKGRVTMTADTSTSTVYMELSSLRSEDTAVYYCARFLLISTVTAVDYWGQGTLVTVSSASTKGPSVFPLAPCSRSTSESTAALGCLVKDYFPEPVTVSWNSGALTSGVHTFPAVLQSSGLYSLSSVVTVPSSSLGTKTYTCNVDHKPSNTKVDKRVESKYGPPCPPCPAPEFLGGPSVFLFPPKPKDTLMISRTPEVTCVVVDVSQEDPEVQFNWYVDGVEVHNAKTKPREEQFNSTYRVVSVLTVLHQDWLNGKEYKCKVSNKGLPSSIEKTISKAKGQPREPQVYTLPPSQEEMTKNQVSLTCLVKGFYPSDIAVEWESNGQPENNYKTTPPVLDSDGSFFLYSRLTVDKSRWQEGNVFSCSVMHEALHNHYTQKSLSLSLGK
**Q.** Which EC50 [1] does the source give for B3 here?
**A.** Its EC50 is 21.6 nM.

**Q.** And the Kd [2]?
**A.** The Kd was 22.6 nM.
